Reference: FireProtDB (doi:10.1021/bi00021a023)

Conditions: Saccharomyces cerevisiae (strain ATCC 204508 / S288c), DSC, reversible: yes; for ddG of mutation (higher = less stable) / denaturant m value / denaturant midpoint (higher = more stable) / unfolding free energy: pH 7, 22 °C, GdnHCl, Potassium phosphate 0.1 M; for Tm / change of melting temperature, mutant - wild type (higher = more stable) / unfolding enthalpy (calorimetric): pH 4.6, Thermal, Potassium acetate 0.1 M

Sequence of Cytochrome c isoform 1 G12A, P00044 (P00044 whole entry G12A, canonical isoform): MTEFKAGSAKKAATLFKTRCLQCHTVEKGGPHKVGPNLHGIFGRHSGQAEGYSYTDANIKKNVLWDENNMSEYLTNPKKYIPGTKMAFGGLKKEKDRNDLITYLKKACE
Sequence of Cytochrome c isoform 1 G12A|N58I, P00044 G12A N58I (P00044 whole entry G12A/N58I, canonical isoform): as the sequence (P00044 whole entry G12A, canonical isoform) above, with N58I counted along it
Sequence of Cytochrome c isoform 1 wild type, P00044 (P00044 whole entry, canonical isoform): as the sequence (P00044 whole entry G12A, canonical isoform) above, with A12G counted along it
Sequence of Cytochrome c isoform 1 N58I, P00044 (P00044 whole entry N58I, canonical isoform): as the sequence (P00044 whole entry G12A, canonical isoform) above, with A12G, N58I counted along it
Sequence of Cytochrome c isoform 1 G12S|N58I, P00044 G12S N58I (P00044 whole entry G12S/N58I, canonical isoform): as the sequence (P00044 whole entry G12A, canonical isoform) above, with A12S, N58I counted along it

Substance	ddG of mutation (higher = less stable) (structure 1YCC) [kcal/mol]	denaturant m value (structure 1YCC) [kcal/mol/M]	denaturant midpoint (higher = more stable) (structure 1YCC) [M]	unfolding free energy (structure 1YCC) [kcal/mol]	Tm (structure 1YCC) [°C]	change of melting temperature, mutant - wild type (higher = more stable) (structure 1YCC) [°C]	unfolding enthalpy (calorimetric) (structure 1YCC) [kcal/mol]	also measured
Cytochrome c isoform 1 G12S|N58I, P00044 G12S N58I	0.31	4.75	1.17	5.55	–	–	–	–
Cytochrome c isoform 1 N58I, P00044	–	–	–	–	62.2	13	101	–
Cytochrome c isoform 1 G12A|N58I, P00044 G12A N58I	–	–	–	–	47.4	-1.8	64.7	–
Cytochrome c isoform 1 G12A, P00044	3.5	5.4	0.44	2.36	–	–	–	–
Cytochrome c isoform 1 wild type, P00044	–	–	–	–	–	–	–	Tm: 49.2 °C; unfolding enthalpy (calorimetric): 78.8 kcal/mol; denaturant m value: 4.36 kcal/mol/M; denaturant midpoint (higher = more stable): 1.34 M; unfolding free energy: 5.86 kcal/mol
